Data set [1] has as its target M.EcoKI, DNA methyltransferase component (M2S1) of the EcoKI type I R/M system (E. coli K12) (UniProt P08957). The experiment in a line: fluorescence polarisation; competition with DNA: M.EcoKI titrated into 50 nM Ocr and 2 nM of a 21-bp DNA duplex fluorescently labelled at the 5' end; anisotropy of the DNA monitored. For orientation: In fluorescence polarisation assays a small probe gives low polarisation when free and higher when bound to something large.

Data set [2] shares this target. In words: ITC; Ocr (typically 40 uM) titrated into M.EcoKI (4 uM); 20 mM Tris-HCl pH 8.0, 6 mM MgCl2, 7 mM 2-mercaptoethanol, 100 uM SAM, with or without 500 mM NaCl; 10 to 30 °C. (ITC needs no label: the signal is the heat of the interaction.)
The subject of data set [3] is M.EcoKI (M2S1 methyltransferase core of EcoKI). In words: fluorescence anisotropy. Also noted: unit not given here. The following applies: Anisotropy: M.EcoKI titrated into 2 nM labelled duplex (with 50 nM Ocr in the competition series); buffer and temperature not given (ref. 12). ITC buffer ….
Data set [4] concerns the target T1, M.EcoKI methyltransferase (M2S1 core of the EcoKI type I restriction/modification enzyme) (UniProt P05719+P08957). The experiment in a line: ITC. Particulars: pH 8.0, 25 °C, no NaCl, 6 mM MgCl2.
Data set [5] concerns the target T1, M.EcoKI methyltransferase (M2S1 core of the EcoKI type I restriction/modification enzyme). In words: ITC in two buffers of different ionisation enthalpy (comparison of C1 and C2). Particulars: pH 8.0; 25 °C; no NaCl; 6 mM MgCl2; 20 mM Tris-HCl pH 8.0 (47.4 kJ/mol) versus 20 mM Hepes (20.5 kJ/mol).

This note sets out measurements from PMC2806950.

On to “Ocr chemically modified with EDC/HOBt and dimethylamine for 120 min (D-series) (from UniProt P03775 1-117) (natural protein)”, for which the Kd in data set [1] is 23.1 nM.
With “Ocr chemically modified with EDC/HOBt and dimethylamine for 180 min (D-series) (from UniProt P03775 1-117) (natural protein)”, in data set [1], the Kd is 26.6 nM.
“Ocr chemically modified with EDC/HOBt and ammonium hydroxide for 30 min (N-series) (from UniProt P03775 1-117) (natural protein)” displayed a Kd in data set [1] of 1.82 nM.
Same read-out and setting: then “Ocr chemically modified with EDC/HOBt and ammonium hydroxide for 180 min (N-series) (from UniProt P03775 1-117) (natural protein)”, with 12.6 nM; and “Ocr chemically modified with EDC/HOBt and ammonium hydroxide for 15 min (N-series) (from UniProt P03775 1-117) (natural protein)”, with 0.56 nM.
“Ocr chemically modified with EDC/HOBt and dimethylamine for 15 min (D-series) (from UniProt P03775 1-117) (natural protein)” came in with a stoichiometry N (Ocr dimer per molecule of M.EcoKI) in data set [2] of 1. In addition, in data set [1], the Kd was found to be 2.64 nM.
In the case of “Ocr chemically modified with EDC/HOBt and dimethylamine for 30 min (D-series) (from UniProt P03775 1-117) (natural protein)”, in data set [1], the Kd was found to be 5.8 nM.
In turn, “Ocr chemically modified with EDC/HOBt and dimethylamine for 60 min (D-series) (from UniProt P03775 1-117) (natural protein)” displayed a Kd in data set [1] of 19.7 nM.
In the case of 21-bp DNA duplex, in data set [3], the Kd is 2.1.
“Ocr chemically modified with EDC/HOBt and ammonium hydroxide for 60 min (N-series) (from UniProt P03775 1-117) (natural protein)”: the stoichiometry N (Ocr dimer per molecule of M.EcoKI) in data set [2] worked out at 1. Moreover, the Kd in data set [1] is 1.9 nM.
Turning to “Ocr (overcome classical restriction; gene 0.3 protein), unmodified wild type”, the ΔH result is listed as “− 90.0 kJ/mol” in data set [4] (20 mM Hepes in place of Tris-HCl (heat of ionization = 20.5 kJ/mol as printed), pH not restated, taken as 8.0) and “− 86.2 kJ/mol” in data set [4] (20 mM Tris-HCl, pH 8.0 (heat of ionization = 47.4 kJ/mol as printed)). In data set [5], this substance registered a net protonation change on binding (no number given) of 0 protons.
In data set [1], “Ocr chemically modified with EDC/HOBt and ammonium hydroxide for 120 min (N-series) (from UniProt P03775 1-117) (natural protein)” registered a Kd of 3.77 nM.
